Assay results as given in patent publication US20240190940A1 (published 2024).
Each block holds one binder with its values, some of them ahead of it.

How the values were obtained:
[1] = molecular target: T1, NRAS Q61K peptide on HLA-B*27:01 (human); assay: cytokine release
T1 peptide: ILDTAGKEEY

[2] = molecular target: T2, NRAS Q61K peptide on HLA-C*07:01 (human); assay: cytokine release
T2 peptide: ILDTAGKEEY

[3] = molecular target: T3, NRAS Q61R peptide on HLA-A*01:01 (human); assay: cytokine release
T3 peptide: ILDTAGREEY

[4] = molecular target: T4, NRAS Q61K peptide on HLA-A*02:01 (human); assay: cytokine release
T4 peptide: ILDTAGKEEY

[5] = molecular target: T5, NRAS Q61K peptide on HLA-B*08:01 (human); assay: cytokine release
T5 peptide: ILDTAGKEEY

[6] = molecular target: T6, NRAS Q61K (Q61K RAS; same sequence in KRAS and HRAS Q61K) peptide on HLA-A*01:01 (human); assay: multimer staining
T6 peptide: ILDTAGKEEY

[7] = molecular target: Q61K RAS 10-mer peptide … presented by HLA-A*01:01 on cells (human); assay: cell-based or functional assay

binding result [1]: no recognition
binding result [2]: no recognition
binding result [3]: no recognition
binding result [4]: no recognition
binding result [5]: no recognition
binding result [6]: recognises
B1: 3795 (TCR, V domains shown)
Valpha: AQKVTQAQTEISVVEKEDVTLDCVYETRDTTYYLFWYKQPPSGELVFLIRRNSFDEQNEISGRYSWNFQKSTSSFNFTITASQVVDSAVYFCALSESHNNAGNMLTFGGGTRLMVKP
Vbeta: NAGVTQTPKFQVLKTGQSMTLQCAQDMNHNSMYWYRQDPGMGLRLIYYSASEGTTDKGEVPNGYNVSRLNKREFSLRLESAAPSQTSVYFCAASQNTEAFFGQGTRLTVV

4-1BB upregulation by TCR-transduced CD8+ effector cells (flow cytometry), autologous DC pulsed with various peptide concentrations [7]: > 0.01 µg/ml
B2: TCR 3795, cysteine-substituted, LVL-modified chimeric TCR (human variable regions, murine constant regions) (TCR)
TCR alpha: AQKVTQAQTEISVVEKEDVTLDCVYETRDTTYYLFWYKQPPSGELVFLIRRNSFDEQNEISGRYSWNFQKSTSSFNFTITASQVVDSAVYFCALSESHNNAGNMLTFGGGTRLMVKPNIQNPEPAVYQLKDPRSQDSTLCLFTDFDSQINVPKTMESGTFITDKCVLDMKAMDSKSNGAIAWSNQTSFTCQDIFKETNATYPSSDVPCDATLTEKSFETDMNLNFQNLLVIVLRILLLKVAGFNLLMTLRLWSS
TCR beta: NAGVTQTPKFQVLKTGQSMTLQCAQDMNHNSMYWYRQDPGMGLRLIYYSASEGTTDKGEVPNGYNVSRLNKREFSLRLESAAPSQTSVYFCAASQNTEAFFGQGTRLTVVEDLRNVTPPKVSLFEPSKAEIANKQKATLVCLARGFFPDHVELSWWVNGKEVHSGVCTDPQAYKESNYSYCLSSRLRVSATFWHNPRNHFRCQVQFHGLSEEDKWPEGSPKPVTQNISAEAWGRADCGITSASYQQGVLSATILYEILLGKATLYAVLVSTLVVMAMVKRKNS
